This data set concerns the molecule itself. The data set is described as follows: X-ray crystal structure of human dCK.

Source text: Crystals were transferred to a cryoprotectant solution that in the case of the citrate condition was made of mineral oil (Sigma) while for the crystals grown in PEG it was composed of the mother liquor and 10% (w/v) xylitol-10% (w/v) sucrose. Once the crystals were mounted in loops, they were frozen by directly immersing them in liquid nitrogen. X-ray data were collected at the Advanced Photon Source using the BioCARS beamlines BM-C and BM-D, and the SERCAT beamline ID-22.
Data for the MAD data set were collected to 2.3 Å resolution. A partially built model into the MAD electron density was used to solve the tetragonal crystals. The electron density for dCK extended to the last residue (Leu260), while the N-terminus (residues 1 to 19) was flexible and could not be modeled. […] The ligands were refined without conformational torsion-angle restraints in order to prevent bias towards a particular ring conformation for the sugars.

B1: Human deoxycytidine kinase (dCK), wild type (enzyme)
chain: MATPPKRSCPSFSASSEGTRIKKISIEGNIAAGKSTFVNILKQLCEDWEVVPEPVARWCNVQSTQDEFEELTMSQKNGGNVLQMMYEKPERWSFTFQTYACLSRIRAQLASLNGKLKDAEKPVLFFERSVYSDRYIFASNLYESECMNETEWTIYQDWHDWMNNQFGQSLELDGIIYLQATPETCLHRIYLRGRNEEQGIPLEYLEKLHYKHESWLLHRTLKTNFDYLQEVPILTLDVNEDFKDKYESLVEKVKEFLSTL
modifications: selenomethionine-substituted protein was used for the MAD phasing data set
notes: Recombinant protein from E. coli; the His-tag was cleaved by thrombin before crystallisation; Residues 1 to 19 were flexible and not modelled; It is a homodimer in the crystal structure; also called human dCK; WT dCK
On to B1, for which the binding result is reported as “binds”.

For the origin of these results see US20110129470A1 (BOARD OF TRUSTEES OF THE UNIVERSITY OF ILLNOIS, published 2011).
